Four molecules from patent US20220213213A1 (published 2022) can be followed below.

Assay [1] deals with T1, 5T4-Fc (obtained from Peter L. Stern, University of Manchester) (human, UniProt Q13641 32-355).
T1 construct: also called h5T4-Fc; recombinant 5T4; not shown: Fc part not specified
T1 sequence (looked up): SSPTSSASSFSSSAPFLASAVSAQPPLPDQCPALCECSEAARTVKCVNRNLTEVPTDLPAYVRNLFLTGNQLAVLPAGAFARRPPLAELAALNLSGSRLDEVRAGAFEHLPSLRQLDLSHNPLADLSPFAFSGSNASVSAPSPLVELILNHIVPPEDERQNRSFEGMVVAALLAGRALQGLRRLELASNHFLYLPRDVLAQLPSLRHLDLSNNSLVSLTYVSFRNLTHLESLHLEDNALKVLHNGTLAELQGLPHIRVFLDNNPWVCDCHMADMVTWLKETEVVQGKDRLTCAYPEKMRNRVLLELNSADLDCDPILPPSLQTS
Briefly: dual ELISA: coated 5T4-Fc, detection with CD137-bio. How it is done:
Plates (#655074, Greiner Bio-One GmbH, Germany) were pre-coated with 0.5 μg/ml 5T4-Fc (obtained from Professor Peter Stern, University of Manchester) overnight. CD137-5T4 bsAb were diluted from 8 to 2×10⁻³ μg/ml in 1:4 dilutions and added in duplicates of 50 μl to each well. CD137-bio (Ancell #502-030) was used as detection antibody at 0.5 μg/ml and the binding was detected with Streptavidin-HRP (Pierce #21126). The ELISA was developed with SuperSignal ELISA PICO Chemiluminescent substrate (Thermo Scientific Pierce, Rockford, Ill. USA) during 2-10 minutes and read in an automated microplate based multi-detection reader (FLUOstar OPTIMA, Netherlands).

The target of assay [2] is T2, 5T4 on the SPR chip (amine-coupled on Biacore; biotinylated on MASS-1) (UniProt Q13641 32-355, limits assumed, biotinylated in the MASS-1 assays).
T2 construct: also called biotinylated 5T4
T2 sequence (looked up): T1 sequence (looked up)
Briefly: SPR Biacore, 5T4 amine-coupled, mAb injected. How it is done: Binding kinetics of the 5T4-specific mAbs have been studied using two different SPR-based platforms, the Biacore 3000 (GE Healthcare) and the MASS-1 platform (Sierra Sensors). Briefly, 5T4 was captured at the sensor chip surface either via direct amine coupling (Biacore platform) or using a streptavidin coated chip and biotinylated 5T4 (MASS-1 platform). The different 5T4-specific mAbs were then injected over the chip in increasing concentrations and the association and dissociation rates studied in real time. A 1:1 Langmuir model was used for curve fitting.

For assay [3], the target named is T3, human/mouse 5T4 chimera aa173-420 (human/mouse chimera, UniProt Q13641 32-420).
T3 chain: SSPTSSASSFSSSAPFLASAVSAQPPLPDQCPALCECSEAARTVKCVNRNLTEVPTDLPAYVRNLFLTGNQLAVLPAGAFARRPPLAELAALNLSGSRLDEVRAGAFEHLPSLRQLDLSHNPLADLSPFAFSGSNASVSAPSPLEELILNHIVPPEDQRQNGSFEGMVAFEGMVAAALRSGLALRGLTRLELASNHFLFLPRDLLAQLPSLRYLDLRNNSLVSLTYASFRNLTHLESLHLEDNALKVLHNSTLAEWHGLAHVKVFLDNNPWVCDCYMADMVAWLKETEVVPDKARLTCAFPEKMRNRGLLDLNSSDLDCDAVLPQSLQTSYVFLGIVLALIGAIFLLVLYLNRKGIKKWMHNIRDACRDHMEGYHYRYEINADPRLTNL
The assay is described as follows: flow cytometry, chimera-transfected cells. On the technique in general: A flow cytometer gives signals particle by particle.

B1: 1626-1208 (bispecific antibody)
chain 1: not shown
chain 2: DIQMTQSPSSLSASVGDRVTITCRASQSISSYLNWYQQKPGKAPKLLIYAASSLQSGVPSRFSGSGSGTDFTLTISSLQPEDFATYYCQQGTGYGPLTFGQGTKLEIKRTVAAPSVFIFPPSDEQLKSGTASVVCLLNNFYPREAKVQWKVDNALQSGNSQESVTEQDSKDSTYSLSSTLTLSKADYEKHKVYACEVTHQGLSSPVTKSFNRGEC
In turn, B1 gave an EC50 in assay [1] of 1.91 nM.

B2: 1626-1210 (bispecific antibody)
heavy: not shown
light: B1 chain 2
Consider B2, for which the response in assay [1] was half-maximal at 0.4 nM (EC50).

B3: 1212/1213 (antibody, V domains shown)
VH: EVQLLESGGGLVQPGGSLRLSCAASGFTFSSYAMSWVRQAPGKGLEWVSYISSYGGYTSYADSVKGRFTISRDNSKNTLYLQMNSLRAEDTAVYYCARYHSGVLDYWGQGTLVTVSS
VL: DIQMTQSPSSLSASVGDRVTITCRASQSISSYLNWYQQKPGKAPKLLIYAASSLQSGVPSRFSGSGSGTDFTLTISSLQPEDFATYYCQQYYYHYLLTFGQGTKLEIK
In assay [2], B3 showed a Kd of 0.18 nM and a koff of 0.00081 s⁻¹. The “normalized % positive cells” value in assay [3] is -0.01.

B4: 1206/1207 (antibody, V domains shown)
VH: EVQLLESGGGLVQPGGSLRLSCAASGFTFSGSSMSWVRQAPGKGLEWVSSIYYSGSGTYYADSVKGRFTISRDNSKNTLYLQMNSLRAEDTAVYYCARYGRNVHPYNLDYWGQGTLVTVSS
VL: DIQMTQSPSSLSASVGDRVTITCRASQSISSYLNWYQQKPGKAPKLLIYAASSLQSGVPSRFSGSGSGTDFTLTISSLQPEDFATYYCQQGYYYLPTFGQGTKLEIK
For B4, the “normalized % positive cells” value in assay [3] amounted to 0.3.

One may read the EC50 as the concentration giving half of the maximal effect. Higher therefore signals a less potent agent. What is called Kd is the constant that tells how readily two partners part at equilibrium. Higher therefore signals weaker binding. One may read the koff as the first-order rate constant of dissociation.
